Reference: patent US20110263454A1, “Methods of Identifying Functional Characteristics of Promoters, Transcription Modifying Proteins and Transcription Modulating Agents” (Salk Institute for Biological Studies, priority 2008, published 2011)

B1: RXRg: Retinoic X Receptor γ (NR2B3), cDNA driver (protein, UniProt P48443 1-463, looked up)
Retinoic acid receptor …: MYGNYSHFMKFPAGYGGSPGHTGSTSMSPSAALSTGKPMDSHPSYTDTPVSAPRTLSAVGTPLNALGSPYRVITSAMGPPSGALAAPPGINLVAPPSSQLNVVNSVSSSEDIKPLPGLPGIGNMNYPSTSPGSLVKHICAICGDRSSGKHYGVYSCEGCKGFFKRTIRKDLIYTCRDNKDCLIDKRQRNRCQYCRYQKCLVMGMKREAVQEERQRSRERAESEAECATSGHEDMPVERILEAELAVEPKTESYGDMNMENSTNDPVTNICHAADKQLFTLVEWAKRIPHFSDLTLEDQVILLRAGWNELLIASFSHRSVSVQDGILLATGLHVHRSSAHSAGVGSIFDRVLTELVSKMKDMQMDKSELGCLRAIVLFNPDAKGLSNPSEVETLREKVYATLEAYTKQKYPEQPGRFAKLLLRLPALRSIGLKCLEHLFFFKLIGDTPIDTFLMEMLETPLQIT
B2: HNF4g: Hepatocyte Nuclear Factor γ (NR2A2), cDNA driver (protein, UniProt Q14541 1-408, looked up)
Hepatocyte nuclear factor …: MNTTDNGVNCLCAICGDRATGKHYGASSCDGCKGFFRRSIRKSHVYSCRFSRQCVVDKDKRNQCRYCRLRKCFRAGMKKEAVQNERDRISTRRSTFDGSNIPSINTLAQAEVRSRQISVSSPGSSTDINVKKIASIGDVCESMKQQLLVLVEWAKYIPAFCELPLDDQVALLRAHAGEHLLLGATKRSMMYKDILLLGNNYVIHRNSCEVEISRVANRVLDELVRPFQEIQIDDNEYACLKAIVFFDPDAKGLSDPVKIKNMRFQVQIGLEDYINDRQYDSRGRFGELLLLLPTLQSITWQMIEQIQFVKLFGMVKIDNLLQEMLLGGASNDGSHLHHPMHPHLSQDPLTGQTILLGPMSTLVHADQISTPETPLPSPPQGSGQEQYKIAANQASVISHQHLSKQKQL
B3: CAR: Constitutive Androstane Receptor (NR1I3), cDNA driver (protein, UniProt Q14994 1-352, looked up)
Nuclear receptor subfamily 1 …: MASREDELRNCVVCGDQATGYHFNALTCEGCKGFFRRTVSKSIGPTCPFAGSCEVSKTQRRHCPACRLQKCLDAGMRKDMILSAEALALRRAKQAQRRAQQTPVQLSKEQEELIRTLLGAHTRHMGTMFEQFVQFRPPAHLFIHHQPLPTLAPVLPLVTHFADINTFMVLQVIKFTKDLPVFRSLPIEDQISLLKGAAVEICHIVLNTTFCLQTQNFLCGPLRYTIEDGARVSPTVGFQVEFLELLFHFHGTLRKLQLQEPEYVLLAAMALFSPDRPGVTQRDEIDQLQEEMALTLQSYIKGQQRRPRDRFLYAKLLGLLAELRSINEAYGYQIQHIQGLSAMMPLLQEICS
B4: RXRb: Retinoic X Receptor β (NR2B2), cDNA driver (protein, UniProt P28702 1-533, looked up)
Retinoic acid receptor …: MSWAARPPFLPQRHAAGQCGPVGVRKEMHCGVASRWRRRRPWLDPAAAAAAAVAGGEQQTPEPEPGEAGRDGMGDSGRDSRSPDSSSPNPLPQGVPPPSPPGPPLPPSTAPSLGGSGAPPPPPMPPPPLGSPFPVISSSMGSPGLPPPAPPGFSGPVSSPQINSTVSLPGGGSGPPEDVKPPVLGVRGLHCPPPPGGPGAGKRLCAICGDRSSGKHYGVYSCEGCKGFFKRTIRKDLTYSCRDNKDCTVDKRQRNRCQYCRYQKCLATGMKREAVQEERQRGKDKDGDGEGAGGAPEEMPVDRILEAELAVEQKSDQGVEGPGGTGGSGSSPNDPVTNICQAADKQLFTLVEWAKRIPHFSSLPLDDQVILLRAGWNELLIASFSHRSIDVRDGILLATGLHVHRNSAHSAGVGAIFDRVLTELVSKMRDMRMDKTELGCLRAIILFNPDAKGLSNPSEVEVLREKVYASLETYCKQKYPEQQGRFAKLLLRLPALRSIGLKCLEHLFFFKLIGDTPIDTFLMEMLEAPHQLA
B5: TR2: Testicular Orphan Nuclear Receptor 2 (NR2C1), cDNA driver (protein, UniProt P13056 1-603, looked up)
Nuclear receptor subfamily 2 …: MATIEEIAHQIIEQQMGEIVTEQQTGQKIQIVTALDHNTQGKQFILTNHDGSTPSKVILARQDSTPGKVFLTTPDAAGVNQLFFTTPDLSAQHLQLLTDNSPDQGPNKVFDLCVVCGDKASGRHYGAVTCEGCKGFFKRSIRKNLVYSCRGSKDCIINKHHRNRCQYCRLQRCIAFGMKQDSVQCERKPIEVSREKSSNCAASTEKIYIRKDLRSPLTATPTFVTDSESTRSTGLLDSGMFMNIHPSGVKTESAVLMTSDKAESCQGDLSTLANVVTSLANLGKTKDLSQNSNEMSMIESLSNDDTSLCEFQEMQTNGDVSRAFDTLAKALNPGESTACQSSVAGMEGSVHLITGDSSINYTEKEGPLLSDSHVAFRLTMPSPMPEYLNVHYIGESASRLLFLSMHWALSIPSFQALGQENSISLVKAYWNELFTLGLAQCWQVMNVATILATFVNCLHNSLQQDKMSTERRKLLMEHIFKLQEFCNSMVKLCIDGYEYAYLKAIVLFSPDHPSLENMEQIEKFQEKAYVEFQDYITKTYPDDTYRLSRLLLRLPALRLMNATITEELFFKGLIGNIRIDSVIPHILKMEPADYNSQIIGHSI
B6: RORb: RAR-related Orphan Receptor β (NR1F2), cDNA driver (protein, UniProt Q92753 1-470, looked up)
Nuclear receptor ROR-beta: MCENQLKTKADATAQIEVIPCKICGDKSSGIHYGVITCEGCKGFFRRSQQNNASYSCPRQRNCLIDRTNRNRCQHCRLQKCLALGMSRDAVKFGRMSKKQRDSLYAEVQKHQQRLQEQRQQQSGEAEALARVYSSSISNGLSNLNNETSGTYANGHVIDLPKSEGYYNVDSGQPSPDQSGLDMTGIKQIKQEPIYDLTSVPNLFTYSSFNNGQLAPGITMTEIDRIAQNIIKSHLETCQYTMEELHQLAWQTHTYEEIKAYQSKSREALWQQCAIQITHAIQYVVEFAKRITGFMELCQNDQILLLKSGCLEVVLVRMCRAFNPLNNTVLFEGKYGGMQMFKALGSDDLVNEAFDFAKNLCSLQLTEEEIALFSSAVLISPDRAWLIEPRKVQKLQEKIYFALQHVIQKNHLDDETLAKLIAKIPTITAVCNLHGEKLQVFKQSHPEIVNTLFPPLYKELFNPDCATGCK

System: mAgrp promoter
Experiment: NHR-promoter luciferase screen, mAgrp promoter
Type: cell-based, mouse
Settings: Table 6d; luciferase activity relative to control (control = 1.00)
How it was run: (§1)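 CV-1 cells were co-transfected with 50 ng NHR (homodimer or NHR/RXR heterodimer), 100 ng promoter-luciferase construct and 50 ng LacZ. Luciferase was normalized to LacZ and to a no-NHR/no-ligand control.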

Molecule | Results of assays of transcription factor (+/- ligand) with mAgrp
B1 | 1.30
B2 | 0.77
B3 | 1.06
B4 | 1.30
B5 | 0.98
B6 | 1.37

Same assay, conditions: mAgrp promoter; HR component with or without ligand

Molecule | Luc. act., normalized to lacZ
B1 | 51.5
B2 | 30.4
B3 | 42.2
B4 | 51.6
B5 | 39.0
B6 | 54.3

Same assay, conditions: mAgrp promoter; HR component with or without ligand; relative to control

Molecule | Normalized Luc. act., normalized to control
B1 | 1.3
B2 | 0.8
B3 | 1.1
B4 | 1.3
B5 | 1.0
B6 | 1.4

System: mPOMC promoter
Experiment: NHR-promoter luciferase screen, mPOMC promoter
Type: cell-based, mouse
Settings: Table 6d; luciferase activity relative to control (control = 1.00)
How it was run: as §1

Molecule | Results of assays of transcription factor (+/- ligand) with mPOMC
B1 | 1.06
B2 | 1.07
B3 | 0.92
B4 | 1.19
B5 | 1.92
B6 | 1.29

Same assay, conditions: mPOMC promoter; HR component with or without ligand

Molecule | Luc. act., normalized to lacZ
B1 | 73.2
B2 | 73.9
B3 | 63.8
B4 | 81.8
B5 | 132.1
B6 | 88.7

Same assay, conditions: mPOMC promoter; HR component with or without ligand; relative to control

Molecule | Normalized Luc. act., normalized to control
B1 | 1.1
B2 | 1.1
B3 | 0.9
B4 | 1.2
B5 | 1.9
B6 | 1.3

System: mADRP promoter
Experiment: NHR-promoter luciferase screen, mADRP promoter
Type: cell-based, mouse
Settings: ADRP promoter; HR/ligand component
How it was run: as §1

Molecule | Luc. act., normalized to lacZ | Normalized Luc. act., normalized to control
B1 | 665.8 | 1.3
B2 | 511.7 | 1.0
B3 | 623.0 | 1.3
B4 | 676.1 | 1.4
B5 | 684.7 | 1.4
B6 | 685.3 | 1.4

Same assay, conditions: transcription factor +/- ligand; control = 1.00

Molecule | mADRP promoter reporter activity
B1 | 1.34
B2 | 1.03
B3 | 1.25
B4 | 1.36
B5 | 1.38
B6 | 1.38

System: mAdiponectin promoter
Experiment: NHR-promoter luciferase screen, mAdiponectin promoter
Type: cell-based, mouse
Settings: Adiponectin; HR component without or with its ligand
How it was run: as §1

Molecule | Luc. act., normalized to lacZ | Normalized Luc. act., normalized to control
B1 | 69.4 | 1.1
B2 | 45.4 | 0.7
B3 | 46.8 | 0.7
B4 | 71.8 | 1.1
B5 | 37.5 | 0.6
B6 | 82.7 | 1.3

Same assay, conditions: transcription factor +/- ligand; control = 1.00

Molecule | mAdiponectin promoter reporter activity
B1 | 1.10
B2 | 0.72
B3 | 0.74
B4 | 1.14
B5 | 0.60
B6 | 1.32

System: RevErba promoter
Experiment: NHR-promoter luciferase screen, RevErba (RVRa) promoter
Type: cell-based
Design: key to mRevErba promoter reporter activity / Normalized Luc. act., normalized to control: luciferase activity normalized to lacZ and to control (no NHR/ligand)
Settings: RVRa promoter; HR component without or with ligand
How it was run: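 CV-1 cells co-transfected with NHR (pcDNA3.1, C-terminal V5H6 tag) as homodimer or RXR heterodimer, RevErbα promoter–luciferase reporter and LacZ transfection control; ligand added where applicable. Luciferase normalized to LacZ and to no-NHR/no-ligand control.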

Molecule | Luc. act., normalized to lacZ | Normalized Luc. act., normalized to control
B1 | 24.64 | 0.9
B2 | 28.15 | 1.0
B3 | 40.00 | 1.4
B4 | 17.38 | 0.6
B5 | 52.3 | 1.9
B6 | 29.93 | 1.1

Same assay, conditions: RVRa promoter; given only where activity is below control

Molecule | negative reciprocal of normalized Luc. act. (fold repression; Table 33)
B1 | −1.135
B4 | −1.609

Same assay, conditions: RVRa promoter; log10 of activity normalized to control

Molecule | normalized Luc. act. on a logarithmic scale (column without head, Table 33)
B1 | −0.05
B2 | 0.00
B3 | 0.16
B4 | −0.21
B5 | 0.27
B6 | 0.03

Same assay, conditions: transcription factor +/- ligand; control = 1.00

Molecule | mRevErba promoter reporter activity
B1 | 0.88
B2 | 1.01
B3 | 1.43
B4 | 0.62
B5 | 1.87
B6 | 1.07
